Earlier results on one substance are cited in publication PMC9569990 (International Journal of Molecular Sciences, 2022).

pKd: −log10 of the molar value.

For data set [1], the target named is RAGE V domain (Homo sapiens) (UniProt Q15109). The note with it: cited from earlier work.
The next data set concerns the target S100P (Homo sapiens) (UniProt P25815). As to conditions: cited from earlier work.

S100P, sequence (P25815 whole entry): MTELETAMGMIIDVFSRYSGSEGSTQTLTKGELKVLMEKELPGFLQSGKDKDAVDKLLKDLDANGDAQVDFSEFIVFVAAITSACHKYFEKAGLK
S100P (Homo sapiens), sequence (P25815 whole entry): as above
RAGE V domain (Homo sapiens), sequence (Q15109 23-116): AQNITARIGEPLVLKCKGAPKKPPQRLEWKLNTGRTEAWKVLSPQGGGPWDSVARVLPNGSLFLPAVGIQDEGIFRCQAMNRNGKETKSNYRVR

On to S100P (from UniProt P25815), for which the pKd in data set [1] was 5.22; in the data set with S100P (Homo sapiens), 7.19.

A word on the pKd: it is −log10 of the Kd, conventionally taken in molar units.
